In patent US12098378B2, “Anti-fungal polypeptides” (priority 2020, dated 2024):

Tests used:
Fraction 3 = assay: ELISA with biotinylated liposomes on streptavidin-coated plates; format: binding, Botrytis cinerea; settings: screen for additional Fraction 3 binders (FIG. 13)
From the text: Dissociation constants (Kd) can be estimated based on the results of an ELISA. In equilibrium analysis as in ELISA, the Kd can be calculated from the equilibrium binding response. Where the ELISA plate wells are coated with a target antigen, and where the target antigen may be a lipid-containing fraction of the membrane of Botrytis cinerea, such a method may further use a range of concentrations of a polypeptide binding the target antigen. Where the ELISA generally provides a quantitative adsorption measure for each polypeptide concentration representing binding of the polypeptide to the target antigen, the range of concentration of a polypeptide may for example be 0.5, 1, 2.5, 5, and 10 μM. The most suitable range of concentrations used can vary depending on the affinity of the polypeptide to the target antigen. The corresponding absorption values as determined by ELISA may result in a sigmoid curve when absorption values are plotted against the logarithmic conversion of the polypeptide concentrations. This sigmoid curve may serve to define an IC50 value. Where this IC50 is the concentration of polypeptide where the corresponding absorption value is 50% of the saturated value as estimated by the maximum of the sigmoidal function, the Kd can be estimated by 1/Ka were the association constant (Ka) can be estimated as 1/IC50. Thus Kd corresponds to the analyte concentration that reaches equilibrium at 50% binding saturation. Commonly computation methods can be used for these calculations. For example, this can be done using GraphPad. In some embodiments, the Kd may be determined by surface plasmon resonance (SPR).
The above-mentioned method for the formation of liposomes (Example 12) was modified with the addition of a biotinylated lipid (12:0 Biotinyl M G (1-(12-N-biotin)aminododecanoyl-rac-glycerol), Sigma Aldrich), to allow for use of these liposomes for ELISA using streptavidin-coated plates (Pierce™ Streptavidin Coated High Capacity Plates, Clear, 96-Well, blocked with SuperBlock™ Buffer, Thermo Fisher Scientific).
To estimate the dissociation constant Kd value of 10G11 binding to Fraction 3, the ELISA set-up with biotinylated liposomes from Fraction 3 as described in Example 13 was used. 10G11 polypeptide was added in the following concentrations: 0.5, 1, 2.5, 5, and 10 μM, prepared by a serial dilution in phosphate buffer. […] This plot was used to estimate the Kd dissociation constant using GraphPad. Where non-linear regression fitting was used.

Botrytis cinerea R16 [1] = settings: several test strains, including Botrytis cinerea R16; WO2014/177595 A1 and WO2014/191146 A1; cited from earlier work
Botrytis cinerea R16 [2] = assay: In vitro antifungal assay, IncuCyte Zoom monitoring of fungal growth from spore suspension; format: cell-based
Description: (§1) Two-fold dilutions of purified VHH 10G11Q were prepared in 96-well microtiter plates. To 20 μl of these dilutions and to 20 μl of water as a control, 80 μl of fungal spore suspension (1 E+05 spores/ml in half strength potato dextrose broth (PDB)) were added, starting with a final VHH 10G11Q concentration of 10 μM. The test plates were incubated for 36 h at 25° C. using the IncuCyte Zoom live cell imaging system. All tests were performed in at least 2 replicates.
as §1, with “VHH 10G11Q and 41D01 were prepared” for “VHH 10G11Q were prepared”, “concentration of 40 μM. The” for “concentration of 10 μM. The”, “incubated for 48 h at” for “incubated for 36 h at”
Microplate graphs were generated using the time plot feature in the graph/export menu of the IncuCyte® Base Analysis Software. Raw data for confluence of treated samples at mid log growth were exported to GraphPad Prism 8 and plotted as a semi logarithmic function of the standard concentrations. IC50 values are extrapolated after fitting the data with a four-parameter logistic regression curve. Pathogen sensitivity is measured based on the IC50, which refers to the concentration (μM) that inhibits 50% of spore germination and/or mycelial growth.

[3] = system: Colletotrichum orbiculare; assay: Control of anthracnose on squash in glasshouse; format: in vivo; settings: 175, 350, 700 g ai/ha, 4 applications; until 2 weeks after the last application; vs non-treated inoculated control (FIG. 18)
Description: Four replicates of pot-grown squash plants (2 plants/pot) were sprayed with 125 ml aqueous suspension, containing a concentration of active ingredient as described in Table 2. Four applications were done spaced 6 or 7 days apart. Plants were inoculated once with Colletotrichum orbiculare two days after the first application (application A) of active ingredient. The efficacy of 10G11Q was compared to that of a non-treated control and the chemical reference Bravo WS (Chlorothalonil).
Disease severity is recorded as percent severity on a scale of 0-100%. Recording started when first symptoms appeared followed by regular assessment till 2 weeks after the fourth application (application D) of the active ingredient.

Botrytis cinerea R16 [4] = assay: Prolonged incubation antifungal assay followed over 14 days; format: cell-based; settings: followed over a period of 14 days (FIG. 9)
Description: as §1, with “The test plates were incubated for 36 h at 25° C. using the IncuCyte Zoom live cell imaging system.” left out

B1: 12C03Q: VHH polypeptide, SEQ ID NO: 5 (protein)
VHH: QVQLQESGGGLVQAGDSLRLSCAASISDRAFSRHVMGWFRQPPGKEREFVAAIGWTGRRTYYADSVKGRFTISRDNAMNTVYLQMNSLKPEDTAVYYCAASHFYSVSFEINDYDYWGQGTQVTVSS
Fraction 3
  binding to Fraction 3 by ELISA: Fraction 3 binding

B2: 41D01: anti-glucosylceramide binding VHH described in WO2014/177595 A1 and WO2014/191146 A1 (protein)
VHH: QVQLQESGGGLVQAGGSLRLSCAASGRTFSRYGMGWFRQLPGKQRELVTSITRGGTTTYADSVKGRFTISRDNAKNTVYLQMNSLKPEDTAVYYCNARSIWRDYWGQGTQVTVSS
modifications: left off: small tags and cut ends
Botrytis cinerea R16 [1]
  antifungal activity among anti-glucosylceramide binding VHHs: most prominent antifungal activity

B3: 10G11Q: VHH polypeptide, SEQ ID NO: 1, begins with a Q residue (protein)
VHH: QVQLVESGGGLVQAGGSLRLSCAASRSIFSINAMDWYRQAPGKQREWVAGITRGGTTKYADSVKGRFTISRDNAKKKVYLQMNSLKPEDTAVYYCNVLRGEQPWTRDYWGQGTQVTVSS
Botrytis cinerea R16 [2]; two-fold dilutions from 10 μM, 36 h at 25° C. (FIG. 1)
  % fungal growth (total green object area) in function of VHH concentration: clear dose-dependent growth inhibition pattern
Botrytis cinerea R16 [2]; two-fold dilutions from 40 μM, 48 h at 25° C. (FIG. 2)
  growth inhibition compared to VHH 41D01: more prominent growth inhibition pattern
[3]
  percent severity of anthracnose on squash: clear and dose-related growth inhibition pattern

B4: Mutant 10: 10G11 charge variant: W100aK and T100bK substitutions in CDR3 (SEQ ID NO: 16) (protein)
VHH: DVQLVESGGGLVQAGGSLRLSCAASRSIFSINAMDWYRQAPGKQREWVAGITRGGTTKYADSVKGRFTISRDNAKKKVYLQMNSLKPEDTAVYYCNVLRGEQPKKRDYWGQGTQVTVSS
Botrytis cinerea R16 [2]; assay as in Example 5 (FIG. 6)
  antifungal activity of charge variants relative to 10G11: significant increase in antifungal activity

B5: Mutant 8: 10G11 charge variant: S27H, I28H, S30H in CDR1 and W100aH, T100bH in CDR3 (SEQ ID NO: 14) (protein)
VHH: DVQLVESGGGLVQAGGSLRLSCAASRHHFHINAMDWYRQAPGKQREWVAGITRGGTTKYADSVKGRFTISRDNAKKKVYLQMNSLKPEDTAVYYCNVLRGEQPHHRDYWGQGTQVTVSS
Botrytis cinerea R16 [2]; assay as in Example 5 (FIG. 6)
  antifungal activity of charge variants relative to 10G11: significant increase in antifungal activity

B6: Mutant 11: 10G11 charge variant: S27K, I28K, S30K in CDR1 and W100aK, T100bK in CDR3 (SEQ ID NO: 17) (protein)
VHH: DVQLVESGGGLVQAGGSLRLSCAASRKKFKINAMDWYRQAPGKQREWVAGITRGGTTKYADSVKGRFTISRDNAKKKVYLQMNSLKPEDTAVYYCNVLRGEQPKKRDYWGQGTQVTVSS
Botrytis cinerea R16 [2]; assay as in Example 5 (FIG. 6)
  antifungal activity of charge variants relative to 10G11: significant increase in antifungal activity
  increase in anti-fungal activity over 10G11: up to 5 fold
Botrytis cinerea R16 [4]
  effect on preventing spore outgrowth: sustained effect on preventing spore outgrowth

B7: Mutant 9: 10G11 charge variant: S27K, I28K and S30K substitutions in CDR1 (SEQ ID NO: 15) (protein)
VHH: DVQLVESGGGLVQAGGSLRLSCAASRKKFKINAMDWYRQAPGKQREWVAGITRGGTTKYADSVKGRFTISRDNAKKKVYLQMNSLKPEDTAVYYCNVLRGEQPWTRDYWGQGTQVTVSS
Botrytis cinerea R16 [2]; assay as in Example 5 (FIG. 6)
  antifungal activity of charge variants relative to 10G11: significant increase in antifungal activity
Botrytis cinerea R16 [4]
  effect on preventing spore outgrowth: sustained effect on preventing spore outgrowth

B8: Mutant 6: 10G11 charge variant: S27H, I28H and S30H substitutions in CDR1 (SEQ ID NO: 12) (protein)
VHH: DVQLVESGGGLVQAGGSLRLSCAASRHHFHINAMDWYRQAPGKQREWVAGITRGGTTKYADSVKGRFTISRDNAKKKVYLQMNSLKPEDTAVYYCNVLRGEQPWTRDYWGQGTQVTVSS
Botrytis cinerea R16 [2]; assay as in Example 5 (FIG. 6)
  antifungal activity of charge variants relative to 10G11: on par antifungal activity with 10G11

B9: Mutant 7: 10G11 charge variant: W100aH and T100bH substitutions in CDR3 (SEQ ID NO: 13) (protein)
VHH: DVQLVESGGGLVQAGGSLRLSCAASRSIFSINAMDWYRQAPGKQREWVAGITRGGTTKYADSVKGRFTISRDNAKKKVYLQMNSLKPEDTAVYYCNVLRGEQPHHRDYWGQGTQVTVSS
Botrytis cinerea R16 [2]; assay as in Example 5 (FIG. 6)
  antifungal activity of charge variants relative to 10G11: on par antifungal activity with 10G11

B10: 10E11Q: VHH polypeptide, SEQ ID NO: 3 (protein)
VHH: QVQLQESGGGLVQAGGSLRLSCAASGTIFRPTAMGWYRQAPGKERELVATITTGGSTKYADSVKGRFTISRGNAKNTVYLQMSSLKPEDTAVYYCNAQWGVRTRDYWGQGTQVTVSS
Fraction 3
  binding to Fraction 3 by ELISA: Fraction 3 binding

B11: 10G11Q-His: 10G11Q polypeptide with a C-terminal addition of a 6× His-Tag (SEQ ID NO: 148) (protein)
VHH: QVQLQESGGGLVQAGGSLRLSCAASRSIFSINAMDWYRQAPGKQREWVAGITRGGTTKYADSVKGRFTISRDNAKKKVYLQMNSLKPEDTAVYYCNVLRGEQPWTRDYWGQGTQVTVSSAAAHHHHHH
modifications: C-terminal 6xHis tag
Botrytis cinerea R16 [2]; assay as in Example 5 (FIG. 4)
  antifungal activity of his-tagged variant relative to 10G11Q: significantly improved anti-fungal activity
